System: A431 cells
Assay: Binding of dendrimer-EGF conjugate by flow cytometry
Assay type: cell-based
Procedure: Cell culture and treatment. The cell lines were cultured in Dulbecco's Modified Eagle Medium (DMEM) supplemented with 10% fetal calf serum (FCS), 100 units/ml penicillin, and 100 μg/ml streptomycin. Cells were allowed to grow in a monolayer in tissue culture flasks incubated at 37° C. in a humidified atmosphere containing 5% CO2 and 95% air. Cells plated in 24-well plates (for flow cytometry), 35 mm dishes with glass cover slips in the bottom (for confocal microscopy) and 96 well plates (for ‘FACE’ and ‘XTT’ assays) were treated with the conjugate under the specified incubation conditions. Excess free EGF was added 30 min prior to the conjugates for blocking the binding of the latter. Competition assay with free EGF was conducted at 4° C. by simultaneously exposing the conjugate and free EGF.
Flow Cytometry and Confocal Microscopy. The FITC fluorescence was quantified on a f a BECKMAN-COULTER EPICS-XL MCL flow cytometer, and the data were analyzed using EXPO32 software (BECKMAN-COULTER, Miami, Fla.). The viable cells were gated, and the mean FL1-fluorescence of 10,000 cells was quantified. […] Cells were incubated with the conjugate in serum-free medium under the specified conditions and analyzed using an OLYMPUS FLUOVIEW 500 laser scanning confocal microscope. FITC fluorescence was excited with a 488 nm blue argon laser and emission was measured through a 505-525 nm barrier filter. […]

B1: EGF-FI (conjugate, UniProt P01133 23-1207, looked up)
Pro-epidermal growth factor: PQHWSCPEGTLAGNGNSTCVGPAPFLIFSHGNSIFRIDTEGTNYEQLVVDAGVSVIMDFHYNEKRIYWVDLERQLLQRVFLNGSRQERVCNIEKNVSGMAINWINEEVIWSNQQEGIITVTDMKGNNSHILLSALKYPANVAVDPVERFIFWSSEVAGSLYRADLDGVGVKALLETSEKITAVSLDVLDKRLFWIQYNREGSNSLICSCDYDGGSVHISKHPTQHNLFAMSLFGDRIFYSTWKMKTIWIANKHTGKDMVRINLHSSFVPLGELKVVHPLAQPKAEDDTWEPEQKLCKLRKGNCSSTVCGQDLQSHLCMCAEGYALSRDRKYCEDVNECAFWNHGCTLGCKNTPGSYYCTCPVGFVLLPDGKRCHQLVSCPRNVSECSHDCVLTSEGPLCFCPEGSVLERDGKTCSGCSSPDNGGCSQLCVPLSPVSWECDCFPGYDLQLDEKSCAASGPQPFLLFANSQDIRHMHFDGTDYGTLLSQQMGMVYALDHDPVENKIYFAHTALKWIERANMDGSQRERLIEEGVDVPEGLAVDWIGRRFYWTDRGKSLIGRSDLNGKRSKIITKENISQPRGIAVHPMAKRLFWTDTGINPRIESSSLQGLGRLVIASSDLIWPSGITIDFLTDKLYWCDAKQSVIEMANLDGSKRRRLTQNDVGHPFAVAVFEDYVWFSDWAMPSVMRVNKRTGKDRVRLQGSMLKPSSLVVVHPLAKPGADPCLYQNGGCEHICKKRLGTAWCSCREGFMKASDGKTCLALDGHQLLAGGEVDLKNQVTPLDILSKTRVSEDNITESQHMLVAEIMVSDQDDCAPVGCSMYARCISEGEDATCQCLKGFAGDGKLCSDIDECEMGVPVCPPASSKCINTEGGYVCRCSEGYQGDGIHCLDIDECQLGEHSCGENASCTNTEGGYTCMCAGRLSEPGLICPDSTPPPHLREDDHHYSVRNSDSECPLSHDGYCLHDGVCMYIEALDKYACNCVVGYIGERCQYRDLKWWELRHAGHGQQQKVIVVAVCVVVLVMLLLLSLWGAHYYRTQKLLSKNPKNPYEESSRDVRSRRPADTEDGMSSCPQPWFVVIKEHQDLKNGGQPVAGEDGQAADGSMQPTSWRQEPQLCGMGTEQGCWIPVSSDKGSCPQVMERSFHMPSYGTQTLEGGVEKPHSLLSANPLWQQRALDPPHQMELTQ
modifications: Pro-epidermal growth factor fluorescein label
With B1 the IC50 (100 nM conjugate, 1 h at 4° C., value listed under the conjugate displaced, read-out: concentration of free EGF giving 50% inhibition of binding of the labeled conjugate) was 60 nM and the “apparent KA” value (double reciprocal binding plots of normalized fluorescence) was 15 nM.
